The numbers were not newly measured in patent US20050255458A1, “Drug discovery assays based on the biology of chronic disease” (priority 2002, published 2005), which cites them from elsewhere.

Data set [1] relates to reverse transmigration of PBMC across HUVEC.
Another data set concerns anagen hair follicles. The following applies: Philpott 1996.

B1: soluble TF: soluble tissue factor (protein, UniProt P13726 33-251, looked up)
extracellular domain: SGTTNTVAAYNLTWKSTNFKTILEWEPKPVNQVYTVQISTKSGDWKSKCFYTTDTECDLTDEIVKDVKQTYLARVFSYPAGNVESTGSAGEPLYENSPEFTPYLETNLGQPTIQSFEQVGTKVNVTVEDERTLVRRNNTFLSLRDVFGKDLIYTLYYWKSSSSGKKTAKTNTNEFLIDVDKGENYCFSVQAVIPSRTVNRKSTDSPVECMGQEKGEFRE
modifications: extracellular domain
notes: soluble tissue factor
Turning to B1, the “inhibition of reverse transendothelial migration” value in data set [1] is given as 69±2%.

B2: IL-1α: interleukin 1α cytokine (protein, UniProt P01583 113-271, looked up)
Interleukin-1 alpha: SAPFSFLSNVKYNFMRIIKYEFILNDALNQSIIRANDQYLTAAALHNLDEAVKFDMGAYKSSKDDAKITVILRISKTQLYVTAQDEDQPVLLKEMPEIPKTITGSETNLLFFWETHGTKNYFTSVAHPNLFIATKQDYWVCLAGGPPSITDFQILENQA
With B2, the scalp hair growth entry in the data set with anagen hair follicles is on record as “inhibition of scalp hair growth”.
